# Test results published in patent publication US20220143024A1, “METHODS OF USING IMIPRIDONES” (Board of Regents, The University of Texas System, priority 2019, published 2022).
# Experiments:
# ACAA2 (human) = ACAA2 (human) (UniProt P42765); test: BioID-MS +ONC201
# ADCK3 (human) = ADCK3 (human) (UniProt Q8NI60); test: BioID-MS +ONC201
# FECH (human) = FECH (human) (UniProt P22830); test: BioID-MS +ONC201
# GATB (human) = GATB (human) (UniProt O75879); test: BioID-MS +ONC201
# HADH (human) = HADH (human) (UniProt Q16836); test: BioID-MS +ONC201
# HSD17B10 (human) [1] = target: HSD17B10 (human) (UniProt Q99714); test: BioID-MS +ONC201
# HSD17B10 (human), sequence (Q99714 2-261 limits assumed): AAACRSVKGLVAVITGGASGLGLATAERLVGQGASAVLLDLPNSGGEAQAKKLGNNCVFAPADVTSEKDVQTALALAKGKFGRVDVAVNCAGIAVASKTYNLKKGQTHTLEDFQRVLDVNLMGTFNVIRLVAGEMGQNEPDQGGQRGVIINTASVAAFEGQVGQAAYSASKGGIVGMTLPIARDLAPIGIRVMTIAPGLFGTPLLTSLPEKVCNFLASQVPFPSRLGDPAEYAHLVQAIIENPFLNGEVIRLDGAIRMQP
# MRPS25 (human) [2] = target: MRPS25 (human) (UniProt P82663); test: BioID-MS +ONC201
# OXCT1 (human) = OXCT1 (human) (UniProt P55809); test: BioID-MS +ONC201
# OXCT1 (human), sequence (P55809 40-520 limits assumed): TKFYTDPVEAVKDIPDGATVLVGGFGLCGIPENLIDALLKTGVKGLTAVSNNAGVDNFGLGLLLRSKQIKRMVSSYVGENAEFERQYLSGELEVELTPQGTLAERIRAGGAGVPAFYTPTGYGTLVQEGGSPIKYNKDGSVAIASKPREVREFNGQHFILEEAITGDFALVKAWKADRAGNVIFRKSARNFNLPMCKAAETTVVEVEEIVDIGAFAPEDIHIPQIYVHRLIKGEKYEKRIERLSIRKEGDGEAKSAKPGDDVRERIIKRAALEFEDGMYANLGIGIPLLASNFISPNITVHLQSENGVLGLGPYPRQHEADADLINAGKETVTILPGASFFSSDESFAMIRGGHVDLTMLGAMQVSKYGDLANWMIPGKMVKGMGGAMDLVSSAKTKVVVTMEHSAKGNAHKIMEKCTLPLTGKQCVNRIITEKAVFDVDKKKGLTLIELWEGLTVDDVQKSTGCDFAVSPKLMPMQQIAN
# POLG (human) = POLG (human) (UniProt P54098); test: BioID-MS +ONC201
# RNMTL1 (human) = RNMTL1 (human) (UniProt Q9HC36); test: BioID-MS +ONC201
# RNMTL1 (human), sequence (Q9HC36 41-420 limits assumed): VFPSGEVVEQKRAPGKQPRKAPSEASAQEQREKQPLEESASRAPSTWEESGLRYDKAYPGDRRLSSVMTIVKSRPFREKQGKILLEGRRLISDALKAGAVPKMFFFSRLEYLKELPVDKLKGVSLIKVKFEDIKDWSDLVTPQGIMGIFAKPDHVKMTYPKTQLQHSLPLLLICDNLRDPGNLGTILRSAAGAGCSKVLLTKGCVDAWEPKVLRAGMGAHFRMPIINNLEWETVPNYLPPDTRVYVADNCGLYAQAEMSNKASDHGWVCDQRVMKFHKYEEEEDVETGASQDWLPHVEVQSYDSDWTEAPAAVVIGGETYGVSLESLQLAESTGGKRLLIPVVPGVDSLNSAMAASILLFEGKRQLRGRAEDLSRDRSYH
# SDHA (human) = SDHA (human) (UniProt P31040); test: BioID-MS +ONC201
# SDHA (human), sequence (P31040 43-664 limits assumed): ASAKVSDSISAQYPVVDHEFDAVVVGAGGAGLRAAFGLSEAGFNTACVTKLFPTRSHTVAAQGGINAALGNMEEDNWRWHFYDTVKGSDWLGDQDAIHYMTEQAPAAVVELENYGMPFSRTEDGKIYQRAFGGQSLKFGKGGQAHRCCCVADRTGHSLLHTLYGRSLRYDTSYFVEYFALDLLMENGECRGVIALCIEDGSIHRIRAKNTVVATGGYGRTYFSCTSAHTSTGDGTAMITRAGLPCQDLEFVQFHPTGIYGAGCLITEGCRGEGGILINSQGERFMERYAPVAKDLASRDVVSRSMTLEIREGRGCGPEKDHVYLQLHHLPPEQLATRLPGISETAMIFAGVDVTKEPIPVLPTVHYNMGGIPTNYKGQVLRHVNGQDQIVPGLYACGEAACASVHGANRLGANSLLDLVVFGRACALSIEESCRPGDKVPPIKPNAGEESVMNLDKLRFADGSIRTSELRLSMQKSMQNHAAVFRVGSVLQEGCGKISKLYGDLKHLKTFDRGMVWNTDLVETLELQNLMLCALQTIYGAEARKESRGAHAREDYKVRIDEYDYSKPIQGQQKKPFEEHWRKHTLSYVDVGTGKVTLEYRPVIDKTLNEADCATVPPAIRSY
# SDHB (human) [3] = target: SDHB (human) (UniProt P21912); test: BioID-MS +ONC201
# SDHB (human), sequence (P21912 29-280 limits assumed): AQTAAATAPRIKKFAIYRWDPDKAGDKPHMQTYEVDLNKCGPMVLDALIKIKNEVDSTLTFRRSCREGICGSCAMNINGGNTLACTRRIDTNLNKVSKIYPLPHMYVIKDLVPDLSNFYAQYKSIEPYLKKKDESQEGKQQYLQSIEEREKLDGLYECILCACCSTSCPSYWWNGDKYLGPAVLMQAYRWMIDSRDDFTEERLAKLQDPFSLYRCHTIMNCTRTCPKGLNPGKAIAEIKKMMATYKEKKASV
# ABCB10 (human) = ABCB10 (human) (UniProt Q9NRK6); test: BioID-MS
# ACAD9 (human) = ACAD9 (human) (UniProt Q9H845); test: BioID-MS
# ALDH6A1 (human) = ALDH6A1 (human) (UniProt Q02252); test: BioID-MS
# C12orf10 (human) = C12orf10 (human) (UniProt Q9HB07); test: BioID-MS
# C20orf72 (human) = C20orf72 (human) (UniProt Q9BQP7); test: BioID-MS
# CARS2 (human) = CARS2 (human) (UniProt Q9HA77); test: BioID-MS
# COQ6 (human) = COQ6 (human) (UniProt Q9Y2Z9); test: BioID-MS
# COX4I1 (human) = COX4I1 (human) (UniProt P13073); test: BioID-MS
# COX4I1 (human), sequence (P13073 23-169 limits assumed): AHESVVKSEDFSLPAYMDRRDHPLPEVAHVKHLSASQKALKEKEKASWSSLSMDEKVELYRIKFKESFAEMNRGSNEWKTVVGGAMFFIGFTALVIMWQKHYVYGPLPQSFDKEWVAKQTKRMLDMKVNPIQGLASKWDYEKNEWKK
# COX5A (human) = COX5A (human) (UniProt P20674); test: BioID-MS
# COX5A (human), sequence (P20674 42-150 limits assumed): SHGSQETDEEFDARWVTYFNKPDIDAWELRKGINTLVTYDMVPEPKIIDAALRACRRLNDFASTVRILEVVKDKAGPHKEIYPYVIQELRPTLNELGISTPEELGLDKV
# FASTKD5 (human) = FASTKD5 (human) (UniProt Q7L8L6); test: BioID-MS
# FOXRED1 (human) = FOXRED1 (human) (UniProt Q96CU9); test: BioID-MS
# GLS (human) = GLS (human) (UniProt O94925); test: BioID-MS
# HINT2 (human) = HINT2 (human) (UniProt Q9BX68); test: BioID-MS
# HSD17B10 (human) [4] = target: HSD17B10 (human) (UniProt Q99714); test: BioID-MS
# IBA57 (human) = IBA57 (human) (UniProt Q5T440); test: BioID-MS
# IBA57 (human), sequence (Q5T440 40-356 limits assumed): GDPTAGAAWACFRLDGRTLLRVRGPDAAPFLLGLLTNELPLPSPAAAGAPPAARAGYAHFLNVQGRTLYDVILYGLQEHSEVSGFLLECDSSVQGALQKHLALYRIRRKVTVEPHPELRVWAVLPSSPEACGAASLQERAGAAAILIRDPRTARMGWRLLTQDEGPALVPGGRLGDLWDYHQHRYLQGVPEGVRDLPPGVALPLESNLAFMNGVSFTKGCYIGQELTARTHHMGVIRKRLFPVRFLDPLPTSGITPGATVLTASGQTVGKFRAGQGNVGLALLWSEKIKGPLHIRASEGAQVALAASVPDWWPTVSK
# IDE (human) = IDE (human) (UniProt P14735); test: BioID-MS
# LETM1 (human) = LETM1 (human) (UniProt O95202); test: BioID-MS
# MARS2 (human) = MARS2 (human) (UniProt Q96GW9); test: BioID-MS
# MMAB (human) = MMAB (human) (UniProt Q96EY8); test: BioID-MS
# MRPL14 (human) = MRPL14 (human) (UniProt Q6P1L8); test: BioID-MS
# MRPL19 (human) = MRPL19 (human) (UniProt P49406); test: BioID-MS
# MRPL46 (human) = MRPL46 (human) (UniProt Q9H2W6); test: BioID-MS
# MRPS25 (human) [5] = target: MRPS25 (human) (UniProt P82663); test: BioID-MS
# MRPS7 (human) = MRPS7 (human) (UniProt Q9Y2R9); test: BioID-MS
# NDUFS7 (human) = NDUFS7 (human) (UniProt O75251); test: BioID-MS
# NDUFS8 (human) = NDUFS8 (human) (UniProt O00217); test: BioID-MS
# NDUFV3 (human) = NDUFV3 (human) (UniProt P56181); test: BioID-MS
# NDUFV3 (human), sequence (P56181 35-108 limits assumed): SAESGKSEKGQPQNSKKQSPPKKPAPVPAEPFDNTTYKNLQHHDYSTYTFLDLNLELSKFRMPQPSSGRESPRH
# NFUl (human) = NFUl (human) (UniProt Q9UMS0); test: BioID-MS
# NIPSNAP1 (human) = NIPSNAP1 (human) (UniProt Q9BPW8); test: BioID-MS
# NUDT19 (human) = NUDT19 (human) (UniProt A8MXV4); test: BioID-MS
# PAM16 (human) = PAM16 (human) (UniProt Q9Y3D7); test: BioID-MS
# PITRM1 (human) = PITRM1 (human) (UniProt Q5JRX3); test: BioID-MS
# PMPCA (human) = PMPCA (human) (UniProt Q10713); test: BioID-MS
# POLG2 (human) = POLG2 (human) (UniProt Q9UHN1); test: BioID-MS
# POLRMT (human) = POLRMT (human) (UniProt O00411); test: BioID-MS
# POLRMT (human), sequence (O00411 42-1230 limits assumed): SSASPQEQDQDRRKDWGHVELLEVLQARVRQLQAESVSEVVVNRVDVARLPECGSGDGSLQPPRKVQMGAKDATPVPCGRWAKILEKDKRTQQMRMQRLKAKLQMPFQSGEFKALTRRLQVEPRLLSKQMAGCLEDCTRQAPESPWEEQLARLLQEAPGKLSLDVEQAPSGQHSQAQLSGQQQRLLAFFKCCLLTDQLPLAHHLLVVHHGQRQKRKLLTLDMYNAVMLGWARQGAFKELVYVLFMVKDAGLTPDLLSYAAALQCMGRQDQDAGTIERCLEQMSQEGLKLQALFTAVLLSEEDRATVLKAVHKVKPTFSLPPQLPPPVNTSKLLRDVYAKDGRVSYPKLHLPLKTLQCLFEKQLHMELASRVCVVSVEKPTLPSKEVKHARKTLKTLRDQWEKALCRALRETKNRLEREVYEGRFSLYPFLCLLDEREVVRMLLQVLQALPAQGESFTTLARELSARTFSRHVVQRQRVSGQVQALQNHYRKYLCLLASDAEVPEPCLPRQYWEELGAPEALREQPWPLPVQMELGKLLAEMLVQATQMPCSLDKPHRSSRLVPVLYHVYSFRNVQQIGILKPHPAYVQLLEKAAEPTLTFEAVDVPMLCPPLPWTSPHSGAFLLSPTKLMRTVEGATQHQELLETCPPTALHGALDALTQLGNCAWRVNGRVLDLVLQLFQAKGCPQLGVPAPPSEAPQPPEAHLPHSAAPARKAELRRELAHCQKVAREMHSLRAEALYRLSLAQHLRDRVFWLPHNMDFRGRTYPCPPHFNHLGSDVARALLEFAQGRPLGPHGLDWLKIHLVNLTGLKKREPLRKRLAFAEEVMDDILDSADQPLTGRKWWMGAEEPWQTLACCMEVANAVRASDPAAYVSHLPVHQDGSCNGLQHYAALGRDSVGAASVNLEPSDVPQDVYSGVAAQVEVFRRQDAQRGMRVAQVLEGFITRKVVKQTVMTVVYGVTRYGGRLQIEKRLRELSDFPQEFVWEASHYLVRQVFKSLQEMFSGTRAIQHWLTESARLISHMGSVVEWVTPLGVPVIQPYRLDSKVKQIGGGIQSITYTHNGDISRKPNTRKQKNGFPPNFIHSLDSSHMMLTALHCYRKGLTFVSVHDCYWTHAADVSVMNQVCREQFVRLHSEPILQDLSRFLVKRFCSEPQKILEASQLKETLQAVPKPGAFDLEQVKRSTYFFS
# PYCR1 (human) = PYCR1 (human) (UniProt P32322); test: BioID-MS
# QRSL1 (human) = QRSL1 (human) (UniProt Q9H0R6); test: BioID-MS
# RG9MTD1 (human) = RG9MTD1 (human) (UniProt Q7L0Y3); test: BioID-MS
# SDHB (human) [6] = target: SDHB (human) (UniProt P21912); test: BioID-MS
# SLIRP (human) = SLIRP (human) (UniProt Q9GZT3); test: BioID-MS
# T1MM44 (human) = T1MM44 (human) (UniProt O43615); test: BioID-MS
# TAC01 (human) = TAC01 (human) (UniProt Q9BSH4); test: BioID-MS
# TBRG4 (human) = TBRG4 (human) (UniProt Q969Z0); test: BioID-MS
# TBRG4 (human), sequence (Q969Z0 108-631 limits assumed): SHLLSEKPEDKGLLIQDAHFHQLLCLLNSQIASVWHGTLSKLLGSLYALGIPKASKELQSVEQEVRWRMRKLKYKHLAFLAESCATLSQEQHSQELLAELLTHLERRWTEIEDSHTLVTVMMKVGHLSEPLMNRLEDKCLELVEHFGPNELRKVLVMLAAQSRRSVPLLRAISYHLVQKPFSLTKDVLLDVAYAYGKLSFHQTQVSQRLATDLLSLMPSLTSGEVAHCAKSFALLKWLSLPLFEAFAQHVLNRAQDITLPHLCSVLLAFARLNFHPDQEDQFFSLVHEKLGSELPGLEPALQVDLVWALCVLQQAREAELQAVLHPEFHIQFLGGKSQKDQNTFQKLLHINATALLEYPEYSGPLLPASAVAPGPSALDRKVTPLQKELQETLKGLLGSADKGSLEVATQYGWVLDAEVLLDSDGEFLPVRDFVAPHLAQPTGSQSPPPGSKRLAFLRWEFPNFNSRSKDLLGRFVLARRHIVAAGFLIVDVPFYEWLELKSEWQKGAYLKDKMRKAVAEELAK
# TFAM (human) = TFAM (human) (UniProt Q00059); test: BioID-MS
# ADCK3 (human), sequence (Q8NI60 163-647 limits assumed): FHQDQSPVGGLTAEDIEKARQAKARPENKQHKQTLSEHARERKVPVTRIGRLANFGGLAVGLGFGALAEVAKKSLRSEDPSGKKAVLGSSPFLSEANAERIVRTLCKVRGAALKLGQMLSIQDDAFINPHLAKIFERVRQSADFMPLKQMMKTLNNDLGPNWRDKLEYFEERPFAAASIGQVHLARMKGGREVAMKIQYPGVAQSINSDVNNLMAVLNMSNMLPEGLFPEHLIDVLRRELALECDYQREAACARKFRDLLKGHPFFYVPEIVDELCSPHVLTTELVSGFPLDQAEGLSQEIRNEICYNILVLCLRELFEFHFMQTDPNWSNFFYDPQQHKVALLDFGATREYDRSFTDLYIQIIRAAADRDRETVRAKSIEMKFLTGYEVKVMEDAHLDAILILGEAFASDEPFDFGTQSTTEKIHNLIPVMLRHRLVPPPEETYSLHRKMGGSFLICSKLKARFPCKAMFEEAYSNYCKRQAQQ
substance,measurement,setting,value
FlagBirA-ClpP (WT) (from UniProt P06709 1-321; Q16740 57-277) (enzyme),Log2 Fold change (vs control),ACAA2 (human),-0.88 log2
same,Log2 Fold change (vs control),ADCK3 (human),-1.91 log2
same,Log2 Fold change (vs control),FECH (human),-1.56 log2
same,Log2 Fold change (vs control),GATB (human),-1.84 log2
same,Log2 Fold change (vs control),HADH (human),-1.3 log2
same,Log2 Fold change (vs control),HSD17B10 (human) [1],0.01 log2
same,Log2 Fold change (vs control),MRPS25 (human) [2],-3.91 log2
same,Log2 Fold change (vs control),OXCT1 (human),-2.58 log2
same,Log2 Fold change (vs control),POLG (human),-4.32 log2
same,Log2 Fold change (vs control),RNMTL1 (human),0.05 log2
same,Log2 Fold change (vs control),SDHA (human),-0.94 log2
same,Log2 Fold change (vs control),SDHB (human) [3],-0.82 log2
FlagBirA-ClpP (Y118A) (from UniProt P06709 1-321; Q16740 57-277) (enzyme),Log2 Fold change (vs control),ABCB10 (human),-1.32 log2
same,Log2 Fold change (vs control),ACAD9 (human),1.18 log2
same,Log2 Fold change (vs control),ALDH6A1 (human),-1.22 log2
same,Log2 Fold change (vs control),C12orf10 (human),-3.75 log2
same,Log2 Fold change (vs control),C20orf72 (human),0.12 log2
same,Log2 Fold change (vs control),CARS2 (human),-0.38 log2
same,Log2 Fold change (vs control),COQ6 (human),0.62 log2
same,Log2 Fold change (vs control),COX4I1 (human),0.17 log2
same,Log2 Fold change (vs control),COX5A (human),0.45 log2
same,Log2 Fold change (vs control),FASTKD5 (human),1.05 log2
same,Log2 Fold change (vs control),FOXRED1 (human),-4.09 log2
same,Log2 Fold change (vs control),GLS (human),0.21 log2
same,Log2 Fold change (vs control),HINT2 (human),0.09 log2
same,Log2 Fold change (vs control),HSD17B10 (human) [4],0.72 log2
same,Log2 Fold change (vs control),IBA57 (human),1.65 log2
same,Log2 Fold change (vs control),IDE (human),-0.15 log2
same,Log2 Fold change (vs control),LETM1 (human),1.06 log2
same,Log2 Fold change (vs control),MARS2 (human),0.23 log2
same,Log2 Fold change (vs control),MMAB (human),0.11 log2
same,Log2 Fold change (vs control),MRPL14 (human),0 log2
same,Log2 Fold change (vs control),MRPL19 (human),-0.97 log2
same,Log2 Fold change (vs control),MRPL46 (human),-0.28 log2
same,Log2 Fold change (vs control),MRPS25 (human) [5],0.62 log2
same,Log2 Fold change (vs control),MRPS7 (human),0.71 log2
same,Log2 Fold change (vs control),NDUFS7 (human),-0.08 log2
same,Log2 Fold change (vs control),NDUFS8 (human),0.19 log2
same,Log2 Fold change (vs control),NDUFV3 (human),0.05 log2
same,Log2 Fold change (vs control),NFUl (human),-0.32 log2
same,Log2 Fold change (vs control),NIPSNAP1 (human),0.11 log2
same,Log2 Fold change (vs control),NUDT19 (human),-0.58 log2
same,Log2 Fold change (vs control),PAM16 (human),-0.42 log2
same,Log2 Fold change (vs control),PITRM1 (human),-0.16 log2
same,Log2 Fold change (vs control),PMPCA (human),0.15 log2
same,Log2 Fold change (vs control),POLG2 (human),-0.89 log2
same,Log2 Fold change (vs control),POLRMT (human),0.57 log2
same,Log2 Fold change (vs control),PYCR1 (human),1.08 log2
same,Log2 Fold change (vs control),QRSL1 (human),-0.01 log2
same,Log2 Fold change (vs control),RG9MTD1 (human),0.47 log2
same,Log2 Fold change (vs control),SDHB (human) [6],-0.6 log2
same,Log2 Fold change (vs control),SLIRP (human),0.25 log2
same,Log2 Fold change (vs control),T1MM44 (human),-0.12 log2
same,Log2 Fold change (vs control),TAC01 (human),0.07 log2
same,Log2 Fold change (vs control),TBRG4 (human),0.28 log2
same,Log2 Fold change (vs control),TFAM (human),0.63 log2
